Assay results reported in patent publication US20260209370A1 (RADIANT BIOTHERAPEUTICS, published 2026).
One block for each molecule: values may come before it.

What was measured:
[1] = biological target: 4-1BB on engineered 4-1BB-expressing effector cells (luciferase reporter assay) (UniProt Q07011); assay: cell-based or functional assay
[2] = biological target: 4-1BB on engineered 4-1BB-expressing effector cells (luciferase reporter assay) (UniProt Q07011 24-255, limits assumed); assay: cell-based or functional assay
[3] = biological target: T1, recombinant mouse 4-1BB protein (mouse, UniProt P20334 24-187); assay: ELISA, plates coated with recombinant 4-1BB, detection with goat α-human Fcγ-HRP
T1 sequence (looked up): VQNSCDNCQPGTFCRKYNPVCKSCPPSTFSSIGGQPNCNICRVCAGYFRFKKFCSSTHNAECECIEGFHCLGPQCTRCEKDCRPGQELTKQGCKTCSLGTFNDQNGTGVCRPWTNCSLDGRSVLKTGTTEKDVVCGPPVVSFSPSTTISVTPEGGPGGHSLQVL
Procedure: Cross-reactivity was assessed using ELISA. Briefly, plates were coated with recombinant 4-1BB proteins derived from either human, cynomolgus monkey, or mouse. Plates were then washed, blocked, and incubated with bovine serum albumin (BSA), along with a series of known concentrations of α-4-1BB IgGs/MBs. The plate was then washed and incubated with a Goat α-human Fcy-HRP secondary antibody to detect bound IgG/MB. The plates were then washed again and developed with TMB substrate to detect HRP and read at OD 450 nm.

B2: AG10058 IgG (IgG4; parent IgG of Fab #3) (antibody, V domains shown)
VH: EVQLVESGGGLVQPGGSLRLSCAASGFSLSTSGVGVGWIRQAPGKGLEWLALIDWDDDKYYSPSLKSRLTISRDNSKNTLYLQLNSLRAEDTAVYYCARGGSDTVLGDWFAYWGQGTLVTVSS
VL: DIQLTQSPSSLSASVGDRVTITCRASQSVSPYLAWYQQKPGKAPKLLIYDASSLESGVPSRFSGSGSGTDFTLTISSLQPEDFATYYCQQGYSLWTFGQGTKVEIK
notes: also called Fab #3 IgG
EC50 (nM) + Fc (4-1BB agonism, luciferase reporter, with FcγRIIb CHO-K1 cells) [2]: 0.346 nM
binding result [3]: binds

B4: NM21 IgG1 (parent IgG of Fab #1) (antibody, V domains shown)
VH: EVQLVESGGGLVQPGGSLRLSCAASGFSFSANYYPCWVRQAPGKGLEWIGCIYGGSSDITYDANWTKGRFTISRDNSKNTVYLQMNSLRAEDTAVYYCARSAWYSGWGGDLWGQGTLVTVSS
VL: DIQMTQSPSSLSASVGDRVTITCQASQSISNRLAWYQQKPGKAPKLLIYSASTLASGVPSRFSGSGSGTDFTLTISSLQPEDFATYYCQSTYYGNDGNAFGTGTKVTVLG
EC50 (nM) + Fc (4-1BB agonism, luciferase reporter, with FcγRIIb CHO-K1 cells) [2]: 0.258 nM

Further lines, results first:

EC50 (nM) + Fc (4-1BB agonism, luciferase reporter, with FcγRIIb CHO-K1 cells) [1]: 0.079 nM
EC50 (nM) - Fc (4-1BB agonism, luciferase reporter, without Fc crosslinking) [1]: 0.087 nM
Molecule: Urelumab MB (effector-silent α-4-1BB Multabody displaying scFabs based on urelumab)

EC50 (nM) + Fc (4-1BB agonism, luciferase reporter, with FcγRIIb CHO-K1 cells) [1]: 0.019 nM
EC50 (nM) - Fc (4-1BB agonism, luciferase reporter, without Fc crosslinking) [1]: 0.02 nM
B1: effector silent α-4-1BB (AG10058; Fab #3) MB (protein, part only; not given: Fab constants, linkers, ferritin carriers, not shown: another chain or arm of the molecule; a dimerising Fc or GST; large carriers; small tags and cut ends)
VH: B2 VH
VL: B2 VL
modifications: Self-assembled ferritin nanocage (Multabody) made from scFab-hFTL, scFab-N_hFTL and scFc(LLRAL)-C_hFTL fusions, with genes mixed 2:1:1. The letters do not carry this multivalent display.

EC50 (nM) + Fc (4-1BB agonism, luciferase reporter, with FcγRIIb CHO-K1 cells) [2]: 0.25 nM
EC50 (nM) - Fc (4-1BB agonism, luciferase reporter, without Fc crosslinking) [2]: 0.442 nM
B3: Urelumab IgG4 (antibody, V domains shown)
VH: QVQLQQWGAGLLKPSETLSLTCAVYGGSFSGYYWSWIRQSPEKGLEWIGEINHGGYVTYNPSLESRVTISVDTSKNQFSLKLSSVTAADTAVYYCARDYGPGNYDWYFDLWGRGTLVTVSS
VL: EIVLTQSPATLSLSPGERATLSCRASQSVSSYLAWYQQKPGQAPRLLIYDASNRATGIPARFSGSGSGTDFTLTISSLEPEDFAVYYCQQRSNWPPALTFGGGTKVEIK
